Results from PMC7905944 (Science signaling, 2020).

Molecular target: the molecule itself
Experiment: cross-linking

B1: endogenous LGR5 of LoVo cells (receptor, human (endogenous in LoVo), UniProt O75473 22-907, looked up)
chain: GSSPRSGVLLRGCPTHCHCEPDGRMLLRVDCSDLGLSELPSNLSVFTSYLDLSMNNISQLLPNPLPSLRFLEELRLAGNALTYIPKGAFTGLYSLKVLMLQNNQLRHVPTEALQNLRSLQSLRLDANHISYVPPSCFSGLHSLRHLWLDDNALTEIPVQAFRSLSALQAMTLALNKIHHIPDYAFGNLSSLVVLHLHNNRIHSLGKKCFDGLHSLETLDLNYNNLDEFPTAIRTLSNLKELGFHSNNIRSIPEKAFVGNPSLITIHFYDNPIQFVGRSAFQHLPELRTLTLNGASQITEFPDLTGTANLESLTLTGAQISSLPQTVCNQLPNLQVLDLSYNLLEDLPSFSVCQKLQKIDLRHNEIYEIKVDTFQQLLSLRSLNLAWNKIAIIHPNAFSTLPSLIKLDLSSNLLSSFPITGLHGLTHLKLTGNHALQSLISSENFPELKVIEMPYAYQCCAFGVCENAYKISNQWNKGDNSSMDDLHKKDAGMFQAQDERDLEDFLLDFEEDLKALHSVQCSPSPGPFKPCEHLLDGWLIRIGVWTIAVLALTCNALVTSTVFRSPLYISPIKLLIGVIAAVNMLTGVSSAVLAGVDAFTFGSFARHGAWWENGVGCHVIGFLSIFASESSVFLLTLAALERGFSVKYSAKFETKAPFSSLKVIILLCALLALTMAAVPLLGGSKYGASPLCLPLPFGEPSTMGYMVALILLNSLCFLMMTIAYTKLYCNLDKGDLENIWDCSMVKHIALLLFTNCILNCPVAFLSFSSLINLTFISPEVIKFILLVVVPLPACLNPLLYILFNPHFKEDLVSLRKQTYVWTRSKHPSLMSINSDDVEKQSCDSTQALVTFTSSSITYDLPPSSVPSPAYPVTESCHLSSVAFVPCL
stoichiometry N: 2
